# Assay results published in patent publication US9539338B2, “Polymer-based protein engineering methods to rationally tune enzyme activity, pH-dependence and stability” (Carnegie Mellon University, priority 2013, dated 2017).
# Legend:
# [1] = Stability study: irreversible inactivation at 40° C., pH 7-9, residual activity; assay type: physicochemical; settings: for half-life t1/2: 40 μM enzyme
# Procedure: Native CT and the prepared conjugates (1.5 to 2.0 mL of 40.0 μM) were incubated in 100 mM sodium phosphate buffer at different pH's at 40° C. Aliquots (20 μL) were removed and added into sodium phosphate buffer (180 μL, 100 mM, at 0° C.). The residual activity was calculated as a ratio of initial rates of hydrolysis reaction at given incubation time over the initial activity, which monitored spectrophotometrically as described above. Half-lives for enzyme longevity were estimated by non-linear curve fitting (equation for single exponential decay) using Enzfitter.
# CT inactivation can occur through unfolding and/or autolysis. The polymer component of the PBPE conjugates may stabilize the enzyme by increasing the energy needed to unfold the protein and also by inhibiting autolysis directly. Since the autolysis reaction of proteases is favored when the enzyme concentration is high, (Yang, Z.; Domach, M.; Auger, R.; Yang, F. X.; Russell, A. J. Enzyme Microb. Technol. 1996, 18, 82-89) stability at relatively high enzyme concentration (40 μM) was investigated. At 40° C. the residual activity of the enzyme was measured as a function of pH and shown in FIG. 8, and the first order rate constant for deactivation and half-life were calculated (Table 5).
# [2] = Stability in artificial gastric acid solution, 167 mM HCl, 37° C. (chymotrypsin-pQA); assay type: physicochemical; settings: 167 mM HCl (pH 1)
# Procedure: Native CT and conjugates (1.5 to 2.0 mL, 4.0 μM) were incubated in 100 mM sodium phosphate buffer (pH 7.0) at 50 or 60° C., and an artificial gastric acid solution (167 mM HCl aq. pH 1.5) at 37° C. Aliquots (50 μL) were removed and kept at 0° C. before measuring residual activity. The residual activity was calculated as a ratio of initial rates of hydrolysis reaction at given incubation time over the initial activity for each specific sample.
# aprotinin (AP) = target: T1, aprotinin (AP) (Bos taurus, UniProt P00974); experiment: Inhibitor binding study with aprotinin; assay type: biochemical, Bovine; settings: 25° C.; for Apparent Vmax / KM/Vmax: pH 8.0
# T1 construct: purchased Sigma Aldrich; host or cells: Nicotiana (tobacco) for aprotinin; bovine pancreas for chymotrypsin
# Procedure: Apparent KM and Vmax values were calculated using EnzFitter by Michelis-Menten curve fitting of substrate against initial velocity plots. (B) Secondary plots with calculated apparent KM and Vmax values were used to determine inhibition constants of aprotinin towards native chymotrypsin.
# FIGS. 23A and B show (A) Substrate/initial velocity plots and (B) secondary plots to determine inhibitor constant for chymotrypsin-pQA200 with aprotinin in 0.1 M sodium phosphate buffer (pH 8) at 25° C. The procedure used was the same as described above for aprotinin and native chymotrypsin.
# (§1) Enzyme inhibition was assayed by measuring the hydrolytic activities of samples which contained a fixed concentration of protease and varying amounts of inhibitor, including a blank with no inhibitor. Inhibitors and peptide substrate were simultaneously added to the native and conjugate solutions immediately before measuring initial rates. The initial rate of hydrolysis of the peptide substrate was monitored by recording the increase in absorption at 412 nm. To determine dissociation constant of the enzyme-inhibitor complexes (Ki), Vmax app and KM app were determined by non-linear curve fitting (equation for Michaelis-Menten parameters) of plots of initial rate versus substrate concentration using the Enzfitter software. The dissociation constants were calculated from secondary plot of KM app/Vmax app versus initial inhibitor concentration.
# [3] = target: T2, Bowman-Birk trypsin-chymotrypsin inhibitor from glycine max (GM) (Glycine max, UniProt P01055); experiment: Inhibitor binding study with Bowman-Birk inhibitor from glycine max; assay type: biochemical, glycine max (soybean); settings: for Apparent Vmax / KM/Vmax: pH 8.0
# T2 construct: purchased Sigma Aldrich; bovine pancreas for chymotrypsin
# Procedure: FIGS. 24A and B show (A) Substrate/initial velocity plots and (B) secondary plots to determine inhibitor constant for native chymotrypsin with GM in 0.1 M sodium phosphate buffer (pH 8) at 25° C. […]
# FIGS. 25A and B show (A) Substrate/initial velocity plots and (B) secondary plots to determine inhibitor constant for chyomtrypsin-pQA200 with GM in 0.1 M sodium phosphate buffer (pH 8) at 25° C. […]
# as §1
# [4] = Thermal stability at 37° C., pH 8.0; assay type: physicochemical; settings: 8 hours incubation at 40 μM, 0.1 M sodium phosphate pH 8.0, 37° C.
# Procedure: Native CT and CT-conjugates (40 μM) were dissolved in 0.1 M sodium phosphate buffer (pH 8.0) and incubated in a water bath in 50 μL aliquots at 37° C. At specified time points, aliquots were removed and diluted to 4 μM using 0.1 M sodium phosphate buffer (pH 8.0). Residual activity, measured in 0.1 M sodium phosphate buffer (pH 8.0) at 25° C., was calculated as the ratio of activity remaining relative to the activity at time zero. Substrate (Suc-AAPF-pNA) concentration was kept constant at 288 μM for each sample and time point. Native CT and conjugate activities were measured in duplicate at each time point.
substance,measurement,setting,value
α-Chymotrypsin (CT) from bovine pancreas (type II) [Native CT],half-life t1/2,"[1]; pH 7.0, 40° C.",7.15 ± 0.91 h
same,half-life t1/2,"[1]; pH 7.0, 40° C., listed as native enzyme",7.2 h
same,initial activity retained,"[1]; pH 7, 40° C., after 6 h",50%
same,half-life t1/2,"[1]; pH 8.0, 40° C.",1.95 ± 0.25 h
same,half-life t1/2,"[1]; pH 9.0, 40° C.",1.53 ± 0.20 h
same,biocatalytic activity lost,"[1]; pH 9, 40° C., after 6 h",70-80%
same,time after which all activity was lost,[2],3 h
same,Apparent Vmax,aprotinin (AP); aprotinin [I]0 0 mM,1.13 mM/s
same,KM/Vmax,aprotinin (AP); aprotinin [I]0 0 mM,76.3 s⁻¹
same,Apparent Vmax,aprotinin (AP); aprotinin [I]0 0.098 mM,1.17 mM/s
same,KM/Vmax,aprotinin (AP); aprotinin [I]0 0.098 mM,149.2 s⁻¹
same,Apparent Vmax,aprotinin (AP); aprotinin [I]0 0.196 mM,1.14 mM/s
same,KM/Vmax,aprotinin (AP); aprotinin [I]0 0.196 mM,242.8 s⁻¹
same,Apparent Vmax,aprotinin (AP); aprotinin [I]0 0.294 mM,1.19 mM/s
same,KM/Vmax,aprotinin (AP); aprotinin [I]0 0.294 mM,314.3 s⁻¹
same,Apparent Vmax,aprotinin (AP); aprotinin [I]0 0.392 mM,1.04 mM/s
same,KM/Vmax,aprotinin (AP); aprotinin [I]0 0.392 mM,431.6 s⁻¹
same,Apparent Vmax,aprotinin (AP); aprotinin [I]0 0.490 mM,1.13 mM/s
same,KM/Vmax,aprotinin (AP); aprotinin [I]0 0.490 mM,569.45 s⁻¹
same,Ki,aprotinin (AP); inhibitor aprotinin,56.3 nM
same,"GM Ki, fold higher than chymotrypsin-pQA198",[3]; GM,~4 fold
same,Apparent Vmax,"[3]; GM [I]0 0 mM, 25° C.",1.10 mM/s
same,KM/Vmax,"[3]; GM [I]0 0 µM, 25° C.",71.8 s⁻¹
same,KM/Vmax,"[3]; GM [I]0 0.049 µM, 25° C.",90.4 s⁻¹
same,KM/Vmax,"[3]; GM [I]0 0.098 µM, 25° C.",102.2 s⁻¹
same,KM/Vmax,"[3]; GM [I]0 0.147 µM, 25° C.",150.1 s⁻¹
same,KM/Vmax,"[3]; GM [I]0 0.196 µM, 25° C.",159.9 s⁻¹
same,KM/Vmax,"[3]; GM [I]0 0.294 µM, 25° C.",188.0 s⁻¹
same,Apparent Vmax,"[3]; GM [I]0 0.049 mM, 25° C.",1.05 mM/s
same,Apparent Vmax,"[3]; GM [I]0 0.098 mM, 25° C.",1.18 mM/s
same,Apparent Vmax,"[3]; GM [I]0 0.147 mM, 25° C.",1.21 mM/s
same,Apparent Vmax,"[3]; GM [I]0 0.196 mM, 25° C.",1.23 mM/s
same,Apparent Vmax,"[3]; GM [I]0 0.294 mM, 25° C.",1.14 mM/s
same,Ki,"[3]; inhibitor Glycine Max, 25° C.",172 nM
same,activity lost,[4],lost half of its activity
